Assay results from doi:10.1101/2024.02.08.579428.

Key:
GUN1-FL = biological target: T1, GUN1-FL (Arabidopsis thaliana, UniProt Q9SIC9 1-918); assay: EMSA
T1 sequence: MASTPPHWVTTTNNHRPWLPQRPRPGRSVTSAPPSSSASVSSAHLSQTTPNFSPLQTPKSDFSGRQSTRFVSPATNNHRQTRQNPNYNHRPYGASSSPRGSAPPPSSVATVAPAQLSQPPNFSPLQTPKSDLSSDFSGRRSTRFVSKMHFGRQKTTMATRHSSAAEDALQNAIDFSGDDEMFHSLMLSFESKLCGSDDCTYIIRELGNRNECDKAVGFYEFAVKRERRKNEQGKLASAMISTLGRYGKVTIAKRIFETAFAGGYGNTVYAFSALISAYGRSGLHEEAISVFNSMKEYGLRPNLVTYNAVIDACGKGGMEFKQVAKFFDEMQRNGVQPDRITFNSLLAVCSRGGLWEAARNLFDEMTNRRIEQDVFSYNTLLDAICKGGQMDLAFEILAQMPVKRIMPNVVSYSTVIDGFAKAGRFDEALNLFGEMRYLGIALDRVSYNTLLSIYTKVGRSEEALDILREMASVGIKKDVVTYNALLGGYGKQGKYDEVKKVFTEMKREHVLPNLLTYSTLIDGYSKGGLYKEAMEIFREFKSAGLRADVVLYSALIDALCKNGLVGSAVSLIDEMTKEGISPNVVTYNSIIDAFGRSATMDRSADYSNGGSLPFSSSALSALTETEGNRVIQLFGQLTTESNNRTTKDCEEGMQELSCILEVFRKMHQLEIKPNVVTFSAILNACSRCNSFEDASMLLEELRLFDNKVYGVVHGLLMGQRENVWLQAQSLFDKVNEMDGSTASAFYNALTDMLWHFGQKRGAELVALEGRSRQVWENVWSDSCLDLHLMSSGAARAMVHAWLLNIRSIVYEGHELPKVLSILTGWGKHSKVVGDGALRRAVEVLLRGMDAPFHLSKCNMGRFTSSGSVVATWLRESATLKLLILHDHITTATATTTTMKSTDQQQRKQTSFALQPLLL

GUN1-PS = biological target: T2, GUN1-PS (Arabidopsis thaliana, UniProt Q9SIC9 232-918); assay: EMSA
T2 sequence: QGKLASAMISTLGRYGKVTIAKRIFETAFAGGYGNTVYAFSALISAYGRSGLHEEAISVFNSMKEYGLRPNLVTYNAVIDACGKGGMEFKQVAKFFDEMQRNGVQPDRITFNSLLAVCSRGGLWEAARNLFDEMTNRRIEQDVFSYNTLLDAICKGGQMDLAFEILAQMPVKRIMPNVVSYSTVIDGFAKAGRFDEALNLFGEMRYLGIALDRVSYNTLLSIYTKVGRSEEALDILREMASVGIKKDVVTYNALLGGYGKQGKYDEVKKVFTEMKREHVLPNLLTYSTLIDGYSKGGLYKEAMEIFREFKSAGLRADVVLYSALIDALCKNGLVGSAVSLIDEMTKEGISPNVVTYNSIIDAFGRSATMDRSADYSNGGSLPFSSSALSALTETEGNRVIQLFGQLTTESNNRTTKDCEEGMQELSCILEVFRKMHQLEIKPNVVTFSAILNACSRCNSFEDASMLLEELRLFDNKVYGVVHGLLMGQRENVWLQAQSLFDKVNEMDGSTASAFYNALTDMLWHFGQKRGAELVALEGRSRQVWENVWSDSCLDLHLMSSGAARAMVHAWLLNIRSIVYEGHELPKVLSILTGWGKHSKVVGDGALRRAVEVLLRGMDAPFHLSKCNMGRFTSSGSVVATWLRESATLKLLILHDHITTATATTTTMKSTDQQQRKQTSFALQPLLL

B1: ndhG_118454 (ssRNA)
RNA: AGAAAAAAAUCUGUUGAUAAAUGAA
Question: Does B1 bind (GUN1-FL)?
Answer: Result: binds

B2: 23S_104856 (ssRNA)
RNA: AAGAGACAACCUGGCGAACUGAAAC
Question: Does B2 bind (GUN1-PS)?
Answer: Result: binds

Question: Does B2 bind (GUN1-FL)?
Answer: Result: binds
